Results: the supplement of paper PMC9170038

System: MS2 coat protein
Experiment: apparent KD of MS2 coat protein; designed switch direction (-1 OFF switch, 1 ON switch): -1; higher = weaker reporter binding
Method in brief: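 The reported apparent KD is a per-design median over clusters, from curve fits of normalised cluster fluorescence. Protein titrations used SNAP-549-labelled MS2 coat protein, doubled from 0.7 or 1.5 nM to 3 µM, in Tris-HCl pH 7.5 buffer with KCl, MgCl2, BSA, DTT, tRNA and Tween-20, with no input, 200 uM small-molecule ligand, or an oligonucleotide input. The RNA switches were transcribed on Illumina chips by stalled E. coli RNA polymerase.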

[1] = input ligand: microRNA oligo, concentration not stated
[2] = Eterna round: R95, input ligand: FMN 200 uM
[3] = Eterna round: R95, input ligand: microRNA oligo, concentration not stated
[4] = Eterna round: R95, input ligand: none

Sequence	apparent KD of MS2 coat protein (input ligand: FMN 200 uM) [nM]	apparent KD of MS2 coat protein [1] [nM]	apparent KD of MS2 coat protein (input ligand: none) [nM]	apparent KD of MS2 coat protein [2] [nM]	apparent KD of MS2 coat protein [3] [nM]	apparent KD of MS2 coat protein [4] [nM]
UUUGUUUAUGUAGGAUAUGCCUGGCGUGCCUUUGCAGAAGGACAUGAGGAUCACCCAUGUAUUGCGGUCUGCGUUCAGAUCGCC [salish99_ExNG1_r4_036] (Eterna round: R96, puzzle: Exclusion NG 1)	29.6	17.4	23			
CGCUGGUGAGGAUAUGGGUGUGGUUACAUGAGGAUCACCCAUGUGGAGUCGCAUGUGGGUCCAGAAGGCGCGGGUG [-25.2, -23.4 kcal, 18% A] (Eterna round: R97, puzzle: Exclusion 5)	158		215			
GGUGCUGGCGCGUCGGUGUUGGUGCAAUAAGCUUGUGAAACAUGAGGAUCACCCAUGUCCUCAUGGGCUCGUCUUGU [salish99_TOv2_r2_089] (puzzle: Sensor v3, turn-off variant 2)				123	13	138
AGUACUAACACGAAAGUGUUAGUACAAUAAGCUUGUGAAACAUGAGGAUCACCCAUGUCCUCAUUAGCUCGUCUUAU [salish99_TOv2_r3_050] (puzzle: Sensor v3, turn-off variant 2)				184	451	172
UUUUUAUAUGAAGGAUAUACUUAACAUGAGGAUCACCCAUGUGGUGUUGUGAGUGAGUGAGUUUAGUAGAAGGUCAAUGAUUCU [JMF's solution 61] (Eterna round: R96, puzzle: Exclusion NG 2)	864	299	419			
GGUAGAGUGGUAGGAUAUCCGACUGAAACAGACGGAGAAGGACCACAGUCACUGGGUCCACUUAUAAUUAACAAUAAAUCUACC [pwkr exNG1 F6.2] (Eterna round: R96, puzzle: Exclusion NG 1)	326	120	263			
GUGUACGGAGGAUAUAUGUGGGCAGGCUGACCUGCAGCUUCACAUGAGGAUCACCCAUGUAGAAGGCUGUACAC [Mat - Exclusion 2 - Mod of Hyphema - D99] (puzzle: Exclusion 2)					20.7	
AAGAAGCGAGGAUAUACAUGAGGAUCACCCAUGUACCUCAUAAAGAAAAGAAAAGAAAGUAGAAGGCGCAAAAG [Default title] (puzzle: Exclusion 3)				24.2	23.1	18.4
GUGUACAGAGGAUAUACAAGAGGAGUUACGAAAGUAACUUCACAUGAGGAUCACCCAUGUAGAAGGCUGUACAC [Dot plot directed v7] (puzzle: Exclusion 2)					21.2	
AACCGUGCGGAGGAUAUUGAUAUCCCAGUCUAUCAAGAAGGCUGCACAUGAGGAUCACCCAUGUGAUCCGUGCU [Riri] (Eterna round: R96, puzzle: Exclusion 6)	201	20.7	25.1			
GGGAAACAUGAGGAUCACCCAUGUGAGGAUAUGAAAAAGAAAAGAAAAGAAAGAAGAAUCAGAAGGCACAAAGG [salish99-ex1_r3_079] (puzzle: Exclusion 1)				75.5	36.1	54.9
CUAUUCCGAGGAUAUACAUGAGGAUCACCCAUGUCGGGCCUCUGCGUUUAGCGCGAAAGUAGAAGGUGGGUUUC [JL Riri mod 9] (Eterna round: R96, puzzle: Exclusion 3)	35.5	26.8	32			
CAUACUCAAGUGAGGAUAUAGUCUCGGAUACGAAACUAGAAGGCACAUGAGGAUCACCCAUGUAGAGAGUAAAG [EX-4 Malc #29] (puzzle: Brourd's mod of Exclusion 4)				62.7	18.5	13.1
AUAUAGUCAGGAUAUCGAAGUGUGUGUUGGUUUGUAAUUUACGAGAAGGGACAUGAGGAUCACCCAUGUAGGAA [JR_Exclusion4)Sub002] (puzzle: Exclusion 4)					35.8	
AAGAAACAUGAGGAUCACCCAUGUGAGGAUAUGAGCAAGAAAAGAAAAGAAAGAAGAAUCAGAAGGCACAAAGG [salish99-ex1_r3_050] (puzzle: Exclusion 1)				6990	1.1	49.3
UCUUACUGAGGAUAUACAUAGAUUUACAUGAGGAUCACCCAUGUUCCUCUAAGUAUAUAUGUAGAAGGCAGAAGAA [Mat - Exclusion 5 - JL Mod - D43] (Eterna round: R97, puzzle: Exclusion 5)	139		370			
GAUAGAGCAGGAUAUUCAAUAUAUCACAUGAGGAUCACCCAUGUCCAGCGAAAGCUGGAGGGAGAAGGGCUCUAUC [Mat - Exclusion 5 - Eli mod - D99] (puzzle: Exclusion 5)				77.6	366	262

Sequence	apparent KD of MS2 coat protein (input ligand: FMN 200 uM) [nM]	apparent KD of MS2 coat protein [1] [nM]	apparent KD of MS2 coat protein (input ligand: none) [nM]	apparent KD of MS2 coat protein [2] [nM]	apparent KD of MS2 coat protein [3] [nM]	apparent KD of MS2 coat protein [4] [nM]
AAAUACAAGUAAAGAUUCUACAUGAGGAUCACCCAUGUGCUCGUCUUAUAAAGUACUAUCACGAAAGUGAUAGUACA [Sensor 3, v1 - 26] (puzzle: Sensor v3, turn-off variant 1)				17	188	15
CAGUACUGAGGAUAUACAUGAGGAUCACCCAUGUGUCCCAGCUAGGAAACUAGCAAAAGUAGAAGGCAGUACUG [Fiskers Ex 3 828 mod 1] (Eterna round: R96, puzzle: Exclusion 3)		20.6				
GUAGAGUCAGGAUAUACGAGAUCGAAAGAUCAGCGAUCCUUACAUGAGGAUCACCCAUGUAGAAGGGACUCUAC [Omei mod 11 to Eli's favorate candidate (ch.parushev)] (Eterna round: R97, puzzle: Exclusion 2)	254		24.3			
AGAAGACAUGAGGAUCACCCAUGUAAGGAUAUUGGAGGUUAGGGAUGCUGGAGUUGGACAAGAAGGUACAGGUG [JR_Exclu1_Sub091] (puzzle: Exclusion 1)					46.9	
GGUCUACAUGAGGAUCACCCAUGUAAGGAUAUCGUCACUGGAGCUUCGGCUCCAGUGACGAGAAGGUGCAUAAU [E1/11-A1] (Eterna round: R97, puzzle: Exclusion 1)	35.4		27.2			
GCAAGCUUAAUCAGUAUGAACAUGAGGAUCACCCAUGUAUAAGGUAAUUCUUUUGGGUUUUUUAUUGCUCGUCUUAU [JR_STOV1_Sub027] (Eterna round: R97, puzzle: Sensor, turn-off variant 1)	245		297			
AUCGAGAUAGGAUAUGCCCAAGUAAACAUGAGGAUCACCCAUGUGGGUCACCUCUUCACGGUAGAAGGGUUAGAUU [Eternabot (L1) Solution 90] (Eterna round: R97, puzzle: Exclusion 5)	62		81.8			
AGAGUACUGCGAGGAUAUACAUGAGGAUCACCCAUGUGGUGGUGUGAGGCUUUGCCUCACACCAUGUAGAAGGCGCAGUACUCA [Mat - Exclusion NG 2 - Mod of JL - D19] (Eterna round: R96, puzzle: Exclusion NG 2)	257	26.8	35.3			
UUCGUUUUAGGAUAUACAGGGUUGGUCGACAACUCACUGUCACAUGAGGAUCACCCAUGUAGAAGGGAGAGAAG [Eternabot (L1) Solution 49] (Eterna round: R97, puzzle: Exclusion 2)	244		198			
UGGUCACAUGAGGAUCACCCAUGUCAGGAUAUCUACAUUGAAGCUGCGGCUUCAAUGUAGAGAAGGGACAUAAU [E1/7-B3] (Eterna round: R97, puzzle: Exclusion 1)	314		272			
AGGUGGAAGCAGGAUAUGCUUGUAUAAUUGAUAGCAGAAGGGCUAACAUGAGGAUCACCCAUGUAAGAGGUGUA [JR_E6_Sub058] (puzzle: Exclusion 6)				340	177	206
AAUAACAUGUUGAUCAAAUACAUGAGGAUCACCCAUGUAUGCUUUUUGUUCGAUAAGAUCAACUAAUAAUAAUAAUA [StovNew/1-C] (Eterna round: R97, puzzle: Sensor, turn-off variant 1)	12.2		12.6			
CUGAGUAGUCAGGAUAUGCUGUACAAAAGUACAGCAGAAGGGACUACAUGAGGAUCACCCAUGUUUACUUCAUG [)mei Ex6 B22] (Eterna round: R97, puzzle: Exclusion 6)	1260		821			
UUUUUAUAUGAAGGAUAUACUUAACAUGAGGAUCACCCAUGUGGUGUUGUGAGUGAGUGAGUUUAGUAGAAGGUCAAUGAUUAU [JMF's solution 59] (Eterna round: R96, puzzle: Exclusion NG 2)	991	205	321			
AGAUGCUCAAGUCGACAUGAGGAUCACCCAUGUACAGUUAAUGAGGAUAUCUGAGAUAAAUAAUAGGAGAAGGCGUGAACAUGA [Ex NG3 #9] (Eterna round: R96, puzzle: Exclusion NG 3)	25.9	20.3	34.9			
AGUUCUAACACGUUGGUGUUAGUACCAUAAGCUUGUGAUACAUGAGGAUCACCCAUGUCCUCAUAAGCUCGUCUUAU [salish99_TOv2_r3_1001] (puzzle: Sensor v3, turn-off variant 2)				26.8	400	21.9
